Measurements reported in article PMC4294473.

Target: recombinant human P301S 0N4R Tau (human)
Assay: co-sedimentation; cell seeding assay: HEK293T cells expressing P301S 1N4R Tau exposed 3 h to rising concentrations of heparin-assembled, sonicated recombinant Tau aggregates (Sarkosyl-insoluble), 3 days; Sarkosyl-insoluble pellet blotted with HT7

human P301S 1N4R Tau expressed in HEK293T cells (natural protein)
fold more seed needed than of TgP301S Tau aggregates for equivalent seeding: > 10 fold | fold more seed needed than of TgP301S Tau seed for equivalent Sarkosyl-insoluble Tau: 50 fold
